Substitutions are numbered along the chain they refer to. In names and notes the source's numbering stands. Each block holds one molecule with its values, some of them ahead of it.
Experiments:
[1] = system: native cynomolgus CXCR2 expressed by cynomolgus neutrophils; experiment: Flow cytometry binding to cynomolgus blood neutrophils; set-up: species or system cynomolgus monkey; settings: FIG. 2, MFI
Description: (§1) Whole human buffy coat, PBMC enriched fractions prepared from human peripheral blood buffy coat or cynomolgus monkey whole blood was used for analysis of antibody binding activity by flow cytometry. Briefly, blood was untreated or diluted 1:1 in sterile filtered room temperature phosphate-buffered saline (PBS). 30 mL samples were layered over 15 mL Lymphoprep™ (Stem Cell Technologies, cat #07851). Peripheral blood mononuclear cells (PBMC) were enriched by room temperature centrifugation at 700 g for 30 minutes with no braking. The PBMC layer was isolated and cells washed in PBS containing 2 mM EDTA with low speed centrifugation at 200 g, to remove platelet contamination. Whole blood or PBMC enriched cell fractions were resuspended in red blood cell lysing solution (BioLegend, 420301). Viable cell counts were determined and cells resuspended at 1×10^7 cells per mL in FACS buffer (1×PBS+0.5% (w/v) BSA+2 mM EDTA pH 7.2).
Flow cytometry binding assays using whole blood or PBMC enriched preparations: Binding assays to detect CXCR2 on blood neutrophil populations using test antibodies were performed essentially as described for assays using transiently transfected Expi293F™ cells. Binding of antibodies to human CXCR2 on the surface of the neutrophils was measured using anti-CXCR2 antibody directly conjugated to the fluorophore allophycocyanin (APC). Matched isotype control antibodies were included for comparison. Cells were incubated with lineage specific antibodies and 2 μg/ml of APC conjugated anti-CXCR2 antibody or isotype control prepared in ice cold 3% BSA/PBS for a minimum of 30 minutes at 4° C. The commercial anti-CXCR2 antibody (clone 48331 (R&D Systems FAB331A)) was used as a positive control. […] The level of fluorescence on the cell surface was measured by flow cytometry. Using this method, test anti-CXCR2 antibodies were detected binding neutrophils from both human and cynomolgus monkey.

[2] = target: T1, native human CXCR2 expressed by human neutrophils (Homo sapiens, UniProt P25025); experiment: Flow cytometry binding to human blood cells (neutrophils, monocytes, PBMC preparations); settings: FIG. 2, MFI
T1 construct: native human CXCR2 expressed by human neutrophils; endogenous in cells; host or cells: human peripheral blood cells (buffy coat, PBMC-enriched fractions, anticoagulated blood): neutrophils, monocytes
T1 sequence (P25025 1-360): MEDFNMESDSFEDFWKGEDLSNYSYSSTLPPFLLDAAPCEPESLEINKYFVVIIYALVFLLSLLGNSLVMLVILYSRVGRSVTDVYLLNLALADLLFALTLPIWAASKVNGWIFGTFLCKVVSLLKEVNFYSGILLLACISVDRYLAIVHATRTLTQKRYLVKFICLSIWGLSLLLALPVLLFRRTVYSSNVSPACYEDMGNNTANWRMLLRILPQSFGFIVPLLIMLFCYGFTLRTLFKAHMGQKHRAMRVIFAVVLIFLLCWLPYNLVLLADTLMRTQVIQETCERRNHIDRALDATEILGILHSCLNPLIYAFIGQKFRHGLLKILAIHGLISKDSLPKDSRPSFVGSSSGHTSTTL
Description: as §1
Flow cytometry binding assays using whole blood or PBMC enriched preparations: Binding assays to detect CXCR2 on blood neutrophil populations using test antibodies were performed essentially as described for assays using transiently transfected Expi293F™ cells. Binding of antibodies to human CXCR2 on the surface of the neutrophils was measured using anti-CXCR2 antibody directly conjugated to the fluorophore allophycocyanin (APC). Matched isotype control antibodies were included for comparison. Cells were incubated with lineage specific antibodies and 2 μg/ml of APC conjugated anti-CXCR2 antibody or isotype control prepared in ice cold 3% BSA/PBS for a minimum of 30 minutes at 4° C. The commercial anti-CXCR2 antibody (clone 48331 (R&D Systems FAB331A)) was used as a positive control. Neutrophil populations were identified by characteristic granularity and size, and positive binding of commercially available antibodies against CD10 (Biolegend, clone H110a, catalogue number 312204). Cells were washed and fixed (BioLegend Fixation buffer, 420801) prior to analysis. The level of fluorescence on the cell surface was measured by flow cytometry. Using this method, test anti-CXCR2 antibodies were detected binding neutrophils from both human and cynomolgus monkey.
To further characterize the anti-CXCR2 antibody BKO-4A8-101c, the ability to bind CXCR2 on neutrophils was tested on anticoagulated human blood. Binding was measured using BKO-4A8-101c directly conjugated to fluorophore APC. Matched isotype control antibodies conjugated to APC were included for comparison. Cells were incubated with lineage-specific antibodies and 2 μg/mL of APC conjugated anti-CXCR2 antibody or isotype control. The level of fluorescence on the cell surface was measured by flow cytometry. […]

Human CXCR2 = target: T2, Human CXCR2 (Homo sapiens, UniProt P25025); experiment: Flow cytometry binding assay, Expi293F cells transiently transfected with human CXCR2; set-up: host or cells: Expi293F cells, vector pTT5; settings: point variant chain co-expressed with parental other chain
T2 sequence (P25025 1-360): T1 sequence (P25025 1-360)
Description: For each 10 mL transfection, lipid-DNA complexes were prepared by diluting 10 μg of plasmid DNA in Opti-MEM™ I Reduced Serum Medium (Cat. no. 31985-062) to a total volume of 1.0 mL. 54 μL of ExpiFectamine™ 293 Reagent was diluted in Opti-MEM™ I medium to a total volume of 1.0 mL. Transfections were carried out according to manufacturer's instructions. The cells were incubated in a 37° C. incubator with a humidified atmosphere of 8% CO2 in air on an orbital shaker rotating at 200 rpm. Approximately 18-24 hours post-transfection, the cell viability was evaluated and transfected cells harvested for use.
Harvested cells were resuspended in FACS buffer (1×PBS+0.5% (w/v) bovine serum albumin (BSA)+2 mM EDTA pH 7.2). Approximately 2×10^5 cells were added per well in a 96-well round-bottomed plate. Cells were pelleted by centrifugation at 400 g for 5 mins at 4° C. and supernatants discarded. 25 μL of each test antibody or control antibody was added to the cells and incubated for 30 minutes at 4° C. Cells were washed twice in 100 μL FACS buffer followed by centrifugation at 400 g for 5 mins at 4° C.
For detection, 50 μL of secondary antibody (Table 2) was added to relevant samples. Commercially available antibodies that bound to transfected CXCR family members were used as positive controls to ensure that the cells were expressing the receptors. Cells were washed twice in 200 μL of FACS buffer followed by centrifugation at 400 g for 5 mins at 4° C. Before sample acquisition, cells were resuspended in 100 μL of FACS buffer. Samples were acquired using the high throughput sampler on a FACSCanto™ II cytometer (Beckton-Dickinson).
Binding of BKO-4A8 and variants thereof was detected by incubation of fluorochrome-conjugate anti-human IgG light chain lambda antibody. The binding activity of antibodies tested, quantified as mean fluorescent intensity, was independent of the antibody Fc region as illustrated in FIG. 9.

hCXCR2 knock-in mice = experiment: House dust mite (HDM) severe asthma model in hCXCR2 knock-in mice; format: in vivo, mouse; settings: 10 mg/kg intraperitoneal days 5 and 12, versus vehicle
Text: hCXCR2 knock-in mice were generated by use of homologous recombination in embryonic stem (ES) cells to insert the human CXCR2 into exon 1 of the mouse CXCR2 gene. The single coding exon of human CXCR2 was inserted into a vector with 5′ and 3′ arms homologous to the genomic location of the mouse coding exon of CXCR2, giving rise to a gene structure that coded for human CXCR2 but retained the mouse non-coding and regulatory elements. This vector was electroporated into C57B1/6 mouse ES cells which were incorporated into C57B1/6 mouse blastocysts and transplanted into pseudopregnant female mice. Pups were backcrossed to the parental C57B1/6 strain and offspring screened by southern blot for germline transmission of the human CXCR2 gene. Mice heterozygous for human CXCR2 were intercrossed to give a homozygous human CXCR2 line and phenotype was confirmed by analysis of binding of anti-mouse and anti-human CXCR2 antibodies by flow cytometry.
The anti-CXCR2 antibody BKO-4A8-mIgG1 (SEQ ID NOs: 113 and 114) was generated by formatting the variable heavy and light chains of BKO-4A8 onto an effector function-reduced mouse IgG1 constant region. Female hCXCR2 knock-in mice were subjected to sensitization with 50 μg HDM in complete Freund's adjuvant (CFA) administered by subcutaneous injection on day 0 and intranasal challenge with […] without CFA on day 14. Animals were treated with vehicle or BKO-4A8-mIgG1 (10 mg/kg) via intraperitoneal injection on days 5 and 12. Inflammatory responses were characterized at endpoint on day 16 by total and differential cell counts in bronchoalveolar lavage (BAL) fluid of the right lung. The left lung was fixed in 10% formalin for histopathology and mucus production assessment.
Statistical evaluation was performed using a Mann-Whitney nonparametric unpaired t test with outliers identified using Grubbs' test (Alpha=0.01) to discern statistically significant differences between the vehicle and treatment groups. All statistical analyses were performed using GraphPad Prism™ 7.01.

Sequence of native cynomolgus CXCR2 expressed by cynomolgus neutrophils (as listed by the source): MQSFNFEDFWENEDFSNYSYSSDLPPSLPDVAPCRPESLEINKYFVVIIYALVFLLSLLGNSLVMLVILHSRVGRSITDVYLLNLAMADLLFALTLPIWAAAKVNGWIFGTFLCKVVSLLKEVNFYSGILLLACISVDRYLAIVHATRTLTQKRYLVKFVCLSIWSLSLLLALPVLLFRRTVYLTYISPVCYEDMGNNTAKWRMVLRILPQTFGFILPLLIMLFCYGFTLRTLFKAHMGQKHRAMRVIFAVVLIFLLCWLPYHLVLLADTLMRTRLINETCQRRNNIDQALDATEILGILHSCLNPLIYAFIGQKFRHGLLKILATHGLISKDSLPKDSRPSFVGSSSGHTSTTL

binding to native human CXCR2 on human PBMCs / neutrophils [2]: high binding activity
B1: BKO-8G3_b: recombinant, VH SEQ ID NO: 41, VL SEQ ID NO: 42 (antibody, V domains shown)
VH: EVQLLESGGGLVQPGGSLRLSCAASGFTFSSYAMSWVRQAPGKGLEWVSAITGSGGSTYYADSVKGRFTISRDKSKNTLYLQMNSLRAEDTAVYYCAIRLGYWGQGSLVTVSS
VL: QSALTQPPSASGSPGQSVTISCTGTSSDVGGYNYVSWYQQHPGKVPKLVIYEVSKRPSGVPDRFSGSKSGNTASLTVSGLQAEDEADYYCSSYAGSNNFGVFGGGTKLTVL
modifications: BKO_8G3_H4_D04_VH; BKO_8G3_L1_G01_VL
binding to native cynomolgus CXCR2 on cynomolgus PBMCs / neutrophils [1]: high binding activity

binding to native human CXCR2 on human PBMCs / neutrophils [2]: substantial levels of binding
B2: BKO-9C3_a: recombinant, VH SEQ ID NO: 49, VL SEQ ID NO: 50 (antibody, V domains shown)
VH: B1 VH with L4V, S30R, T52S, R99Q, S107T
VL: B1 VL with T19I, V49M, S91T
modifications: BKO_9C3_H8_G08_VH; BKO_9C3_L1_F01_VL
binding to native cynomolgus CXCR2 on cynomolgus PBMCs / neutrophils [1]: above average levels of binding

Fold change in binding relative to BKO-4A8 (Human CXCR2): 1.0
B3: V97K: BKO-4A8 point variant, VL SEQ ID NO: 97 (antibody, V domains shown)
VL: B1 VL with T23I, G43D, V45A, V49M, S54N, S96N, V101K
modifications: VH not cited; 4A8 VL V97K

B4: BKO-4A8-mIgG1: BKO-4A8 variable chains on an effector function-reduced mouse IgG1 constant region (SEQ ID NOs: 113 and 114) (antibody)
heavy: EVQLLESGGGLVQPGGSLRLSCAASGFTFSSSTMSWVRQAPGKGLEWVSAISGRGRNTYYADSVKGRFTISRDNSRNTLYLQMNSLRAEDTAVYYCAIQMGYWGQGILVTVSSAKTTPPSVYPLAPGSAAQTNSMVTLGCLVKGYFPEPVTVTWNSGSLSSGVHTFPAVLQSDLYTLSSSVTVPSSPRPSETVTCNVAHPASSTKVDKKIVPRDCGCKPCICTVPEVSSVFIFPPKPKDVLTITLTPKVTCVVVAISKDDPEVQFSWFVDDVEVHTAQTQPREEQFNSTFRSVSELPIMHQDWLNGKEFKCRVNSAAFPAPIEKTISKTKGRPKAPQVYTIPPPKEQMAKDKVSLTCMITDFFPEDITVEWQWNGQPAENYKNTQPIMNTNGSYFVYSKLNVQKSNWEAGNTFTCSVLHEGLHNHHTEKSLSHSPG
light: QSALTQPPSASGSPGQSVTISCIGTSSDVGGYNYVSWYQQHPDKAPKLMIYEVNKRPSGVPDRFSGSKSGNTASLTVSGLQAEDEADYYCSSYAGNNNFGVFGGGTKLTVLGQPKSSPSVTLFPPSSEELETNKATLVCTITDFYPGVVTVDWKVDGTPVTQGMETTQPSKQSNNKYMASSYLTLTARAWERHSSYSCQVTHEGHTVEKSLSRADCS
modifications: effector function-reduced mouse IgG1 constant region; BKO-4A8-mIgG1 VH; BKO-4A8-mIgG1 VL
goblet cell hyperplasia (hCXCR2 knock-in mice; p=0.0052): reduced goblet cell hyperplasia
reduction in BAL eosinophil counts (hCXCR2 knock-in mice; p=0.017): > 60%
reduction in BAL neutrophil counts (hCXCR2 knock-in mice; p=0.028): > 60%

Reference: patent US12018084B2, “Anti-CXCR2 antibodies and uses thereof” (Cephalon LLC, priority 2018, dated 2024)
